The values that follow come from publication PMC8276268 (Biochemistry, 2012).

Experiment [1] addresses ABCG2^Myc-ECL3* (full-length ABCG2 with ECL3 replaced by ECL1) (human) (UniProt Q9UNQ0). Description: cross-linking.
The target of experiment [2] is ABCG2^Myc-L3*TM6* (full-length ABCG2 with ECL3—TM6 replaced by ECL1—TM2) (human) (UniProt Q9UNQ0). Description: cross-linking.
Experiment [3] addresses ABCG2^Myc-TM5* (ABCG2 with TM5 replaced by TM1) (human) (UniProt Q9UNQ0). Description: cross-linking.
Experiment [4] has as its target ABCG2^Myc-TM5*L3* (full-length ABCG2 with TM5—ECL3 replaced by TM1—ECL1) (human) (UniProt Q9UNQ0). Description: cross-linking.
In experiment [5] the target is ABCG2^Myc-TM6* (ABCG2 with TM6 replaced by TM2) (human) (UniProt Q9UNQ0). Description: cross-linking.
The target in experiment [6] is T1, HA-tagged full-length ABCG2 (ABCG2^HA-WT) (human, UniProt Q9UNQ0 1-655, R482G).
T1 sequence (looked up): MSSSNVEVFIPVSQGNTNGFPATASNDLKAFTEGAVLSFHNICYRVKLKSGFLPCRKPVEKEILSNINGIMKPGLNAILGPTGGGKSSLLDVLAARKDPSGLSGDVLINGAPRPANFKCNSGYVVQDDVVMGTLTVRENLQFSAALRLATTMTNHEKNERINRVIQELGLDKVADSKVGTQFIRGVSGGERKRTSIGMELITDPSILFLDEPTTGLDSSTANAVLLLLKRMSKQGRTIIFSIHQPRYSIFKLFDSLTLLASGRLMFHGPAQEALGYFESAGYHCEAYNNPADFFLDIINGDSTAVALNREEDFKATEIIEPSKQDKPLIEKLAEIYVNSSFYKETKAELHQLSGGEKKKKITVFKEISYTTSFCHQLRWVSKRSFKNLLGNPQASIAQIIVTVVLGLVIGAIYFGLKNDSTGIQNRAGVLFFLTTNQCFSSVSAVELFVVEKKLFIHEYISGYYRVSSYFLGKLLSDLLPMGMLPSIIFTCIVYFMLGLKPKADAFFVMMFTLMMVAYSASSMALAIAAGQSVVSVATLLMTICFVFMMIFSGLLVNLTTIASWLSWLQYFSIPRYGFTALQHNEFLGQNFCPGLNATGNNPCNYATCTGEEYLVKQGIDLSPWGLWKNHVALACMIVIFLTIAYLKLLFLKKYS
Description: co-IP.

Turning to “ABCG2^Myc-ECL3* (full-length ABCG2 with ECL3 replaced by ECL1) (from UniProt Q9UNQ0 1-655) (natural protein)”, in experiment [1], the percent of the protein cross-linked as dimer was determined as 26%, the percent of the protein cross-linked as pentamer is 43% and the percent of the protein cross-linked as trimer worked out at 11%.
In experiment [2], “ABCG2^Myc-L3*TM6* (full-length ABCG2 with ECL3—TM6 replaced by ECL1—TM2) (from UniProt Q9UNQ0 1-655) (natural protein)” gave a percent of the protein cross-linked as dimer of 11% and a percent of the protein cross-linked as hexamer of 89%.
In experiment [3], “ABCG2^Myc-TM5* (ABCG2 with TM5 replaced by TM1) (from UniProt Q9UNQ0 1-655) (natural protein)” returned a percent of the protein cross-linked as dimer of 31%, a percent of the protein cross-linked as tetramer of 10% and a percent of the protein cross-linked as trimer of 32%.
In the case of “ABCG2^Myc-TM5*L3* (full-length ABCG2 with TM5—ECL3 replaced by TM1—ECL1) (from UniProt Q9UNQ0 1-655) (natural protein)”, in experiment [4], the percent of the protein cross-linked as dimer worked out at 29%, the percent of the protein cross-linked as pentamer is 51% and the percent of the protein cross-linked as trimer was determined as 8%.
For “ABCG2^Myc-TM6* (ABCG2 with TM6 replaced by TM2) (from UniProt Q9UNQ0 1-655) (natural protein)”, in experiment [5], the percent of the protein cross-linked as dimer is 18%, the percent of the protein cross-linked as tetramer was determined as 49% and the percent of the protein cross-linked as trimer stood at 29%.

B1: Myc-tagged wild-type ABCG2 (ABCG2^Myc-WT) (natural protein, human, UniProt Q9UNQ0 1-655, looked up)
chain: MSSSNVEVFIPVSQGNTNGFPATASNDLKAFTEGAVLSFHNICYRVKLKSGFLPCRKPVEKEILSNINGIMKPGLNAILGPTGGGKSSLLDVLAARKDPSGLSGDVLINGAPRPANFKCNSGYVVQDDVVMGTLTVRENLQFSAALRLATTMTNHEKNERINRVIQELGLDKVADSKVGTQFIRGVSGGERKRTSIGMELITDPSILFLDEPTTGLDSSTANAVLLLLKRMSKQGRTIIFSIHQPRYSIFKLFDSLTLLASGRLMFHGPAQEALGYFESAGYHCEAYNNPADFFLDIINGDSTAVALNREEDFKATEIIEPSKQDKPLIEKLAEIYVNSSFYKETKAELHQLSGGEKKKKITVFKEISYTTSFCHQLRWVSKRSFKNLLGNPQASIAQIIVTVVLGLVIGAIYFGLKNDSTGIQNRAGVLFFLTTNQCFSSVSAVELFVVEKKLFIHEYISGYYRVSSYFLGKLLSDLLPMGMLPSIIFTCIVYFMLGLKPKADAFFVMMFTLMMVAYSASSMALAIAAGQSVVSVATLLMTICFVFMMIFSGLLVNLTTIASWLSWLQYFSIPRYGFTALQHNEFLGQNFCPGLNATGNNPCNYATCTGEEYLVKQGIDLSPWGLWKNHVALACMIVIFLTIAYLKLLFLKKYS
For the molecule B1, the “Co-IP with WT, relative to the wild-type construct” value in experiment [6] amounted to 100%.
